{
  "source": "paper PMC3068846",
  "target": "DivL DHp and CA domains fused to YFP (Caulobacter crescentus)",
  "sequence (Q9RQQ9 547-758)": "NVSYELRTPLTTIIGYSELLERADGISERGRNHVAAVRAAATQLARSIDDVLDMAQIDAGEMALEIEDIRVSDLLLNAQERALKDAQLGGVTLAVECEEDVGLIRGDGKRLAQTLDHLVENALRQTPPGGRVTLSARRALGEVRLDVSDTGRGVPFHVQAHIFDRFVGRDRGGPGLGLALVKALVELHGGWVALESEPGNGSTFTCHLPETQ",
  "assay": "FRET or BRET",
  "data": [
    {"substance": "DivK~P-CFP (DivK-CFP phosphorylated by DivJ and ATP) (natural protein)", "values": [
      {"measurement": "FRET efficiency relative to the longer version of DivL", "value": 85, "unit": "%"}
    ]}
  ]
}
